Assay results reported in publication PMC11298613.

Molecular target: HA-bromoTAG-PPM1H

Substance: FLAG-dTAG-SMAD3
- decrease in tail phosphorylation of dTAG-SMAD3 by immunoblot in U2OS cells co-expressing both, 2 h TGF-β with BDPIC 0.1-10 μM against DMSO: 50%
